Substrate in data set [1]: CC(C)C[C@H](N)C(=O)Nc1ccc([N+](=O)[O-])cc1
The experiment in a line: Kinetic parameters of Bacillus licheniformis aminopeptidase (Lineweaver-Burk). The data set is classed as biochemical. As to conditions: other: Tris-Cl pH 8.0, 37° C., 0.5 U enzyme, absorbance at 405 nm, Lineweaver-Burk plot. On the procedure:
(§1) Aminopeptidase activities of this invention were measured by the method of Pfleiderer (Pfleiderer, Meth. Enzymol., 19, 514-521, 1970). Precisely, 1 U of enzyme activity defines the enzyme quantity changing 1 absorbance at 405 nm which is measured by the process adding aminopeptidase in 1 ml solution of […] Tris-Cl (pH 8.0) and 2 mM leucine-p-nitroanilide (Sigma, USA), incubating at 37° C. for 1 min, then adding 100 μl of 70% acetic acid to stop the reaction. At that time leucine-p-nitroanilide was dissolved in dimethylsulfoxide (DMSO) to make 100 mM solution.
(§2) In order to compare substrate specificity of aminopeptidase of this invention, 2 kinds of substrate were used. In detail, one was synthetic substrates of p-nitroanilide derivative and purchased from Sigma, USA and the other was oligopeptide such as methionyl oligopeptide of SEQ. ID. NO: 1 which have amino acid sequence similar to N-terminus of methionyl HGH and leucyl oligopeptide of SEQ. ID. NO: 2. The oligopeptides of this invention were synthesized.
(§3) Enzyme reaction of aminopeptidase was performed by the process described in Reference Examples. At that time p-nitroanilide derivative was used as synthetic substrate. Leucine p-nitroanilide was used as substrate to perform the reaction in concentration of 0.03125, 0.0625, 0.125, 0.25, 0.5, 1 mM and methionine p-nitroanilide in 0.125, 0.25, 0.5, 1 mM and aminopeptidase in 0.5 U respectively. Above reactions using leucine-p-nitroanilide proceeded for 2 min and methionine-p-nitroanilide for 40 min. Then 70% acetic acid was added to stop the reactions and absorbance at 405 nm was measured. The product concentration was measured by adopting absorbance constant ε405=9450M^−1 cm^−1.
(§4) In reaction condition mentioned above, initial velocity of enzyme reaction was measured with varying the substrate concentration. Lineweaver-Burk plot was used to determine Km value and Maximum reaction velocity of aminopeptidase from Bacillus licheniformis. In addition kcat and kcat/Km was determined by using Km value and maximum reaction velocity described above.

Substrate in data set [2]: CSCC[C@H](N)C(=O)Nc1ccc([N+](=O)[O-])cc1
The description is as above. As to conditions: other: Tris-Cl pH 8.0, 37° C., 0.5 U enzyme, absorbance at 405 nm, Lineweaver-Burk plot. The data set is classed as biochemical. On the procedure:
as §1, §2, §3, §4

B1: Bacillus licheniformis aminopeptidase (Bacillus licheniformis DSM 13 = ATCC 14580) (protein)
chain: KFSKKFNENRAYQTIYHLSETIGPRVTGTAEEKKSAAFIASQMKKSNLKVSTQKFSIPDRLEGTLTVQGNNVPARPAAGSAPTAAEGLAAPLYDAGLGLPGDFTEEAKGKIAVILRGELTFYEKAKNAADAGASGVIIYNNVDSLVPLTPNLSGNKVDIPVVGVKKEDGEKLLSEQEAILKLKAHKNQTSQNVIGVRKAKGVKNPDIVYVTSHYDSVPYAPGANDNASGTSVVLELARILKTVPADKEIRFITFGAEEIGLLGSRHYVSTLSNQEVKRSVANFNLDMVATSWENASQLYINTPDGSANLVWQLSKAASLSLGKDVLFLHQGGSSDHVPFHEAGIDSANFIWREPGTGALEPWYHTPYDTIEHISKDRLKTAGQIAGTAVYNFTKKENRKPSYSSVAQ
The term Km denotes the substrate concentration at which the rate is half of its maximum. The term kcat denotes the maximal rate divided by the concentration of active sites. Broadly, the kcat/Km is the second-order rate constant that governs catalysis at low substrate concentration. For the protein B1, in data set [1], the Km was 739 µM, the kcat was found to be 130 s⁻¹ and the catalytic efficiency (kcat/Km) amounted to 176000 M⁻¹ s⁻¹. Moreover, in data set [2], the Km is 1004 µM, the turnover number (kcat) worked out at 2.59 s⁻¹ and the kcat/Km was 2580 M⁻¹ s⁻¹.

(Values after patent US6428997B1, “Aminopeptidase derived from Bacillus licheniformis and process for preparation of natural type proteins” (LG Chemical Ltd., priority 1997, dated 2002).)
